Source: article PMC5119942 (The Journal of Cell Biology, 2016)

How the values were obtained:
[1] = target: T1, His6-Trs31 (recombinant) (yeast, UniProt Q03337 1-283); experiment: co-purification of co-expressed subunits
T1 sequence (looked up): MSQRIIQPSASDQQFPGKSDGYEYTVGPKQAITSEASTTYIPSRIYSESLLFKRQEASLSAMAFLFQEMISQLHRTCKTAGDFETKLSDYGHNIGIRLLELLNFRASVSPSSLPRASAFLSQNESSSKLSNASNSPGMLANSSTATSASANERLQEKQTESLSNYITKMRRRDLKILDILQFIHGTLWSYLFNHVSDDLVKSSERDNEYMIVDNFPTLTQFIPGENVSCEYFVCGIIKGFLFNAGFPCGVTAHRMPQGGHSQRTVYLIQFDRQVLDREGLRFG

[2] = target: T2, Trs130-TAP (recombinant) (yeast, UniProt Q03660 1-1102); experiment: co-purification of co-expressed subunits
T2 sequence (looked up): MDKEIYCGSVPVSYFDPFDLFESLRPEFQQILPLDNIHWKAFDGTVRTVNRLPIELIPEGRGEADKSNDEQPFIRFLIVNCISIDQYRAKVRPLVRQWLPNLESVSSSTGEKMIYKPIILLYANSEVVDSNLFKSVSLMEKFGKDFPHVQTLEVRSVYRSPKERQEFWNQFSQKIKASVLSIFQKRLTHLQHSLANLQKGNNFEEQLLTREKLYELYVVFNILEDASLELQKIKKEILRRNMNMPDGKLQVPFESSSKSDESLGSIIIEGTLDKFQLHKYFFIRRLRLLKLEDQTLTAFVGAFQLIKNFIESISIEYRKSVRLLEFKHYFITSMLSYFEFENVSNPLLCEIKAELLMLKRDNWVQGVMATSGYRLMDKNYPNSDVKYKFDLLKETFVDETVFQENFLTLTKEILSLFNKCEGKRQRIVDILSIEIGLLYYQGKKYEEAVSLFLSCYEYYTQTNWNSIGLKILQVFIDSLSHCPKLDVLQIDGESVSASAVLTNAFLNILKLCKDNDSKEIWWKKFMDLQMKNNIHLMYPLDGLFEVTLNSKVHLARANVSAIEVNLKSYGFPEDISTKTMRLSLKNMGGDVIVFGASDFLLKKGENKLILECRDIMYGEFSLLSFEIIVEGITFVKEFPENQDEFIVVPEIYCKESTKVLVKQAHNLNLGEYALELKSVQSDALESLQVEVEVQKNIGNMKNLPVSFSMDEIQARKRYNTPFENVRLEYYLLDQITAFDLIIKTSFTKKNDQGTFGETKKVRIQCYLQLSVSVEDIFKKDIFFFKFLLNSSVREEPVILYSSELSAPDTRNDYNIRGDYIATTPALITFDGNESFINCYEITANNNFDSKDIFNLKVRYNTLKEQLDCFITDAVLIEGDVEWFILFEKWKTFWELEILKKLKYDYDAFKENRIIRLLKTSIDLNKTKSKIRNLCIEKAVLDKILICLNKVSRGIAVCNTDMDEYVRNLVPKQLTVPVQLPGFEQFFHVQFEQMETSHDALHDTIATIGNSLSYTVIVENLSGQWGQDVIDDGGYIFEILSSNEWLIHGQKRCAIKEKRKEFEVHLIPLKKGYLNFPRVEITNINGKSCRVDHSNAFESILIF

- stoichiometry N [1]: 2
- stoichiometry N [2]: 2
B1: Bet3 (recombinant) (natural protein, yeast, UniProt P36149 1-193, looked up)
chain: MVSTTQSRSLKAMGEEIWKNKTEKINTELFTLTYGSIVAQLCQDYERDFNKVNDHLYSMGYNIGCRLIEDFLARTALPRCENLVKTSEVLSKCAFKIFLNITPNITNWSHNKDTFSLILDENPLADFVELPMDAMKSLWYSNILCGVLKGSLEMVQLDCDVWFVSDILRGDSQTEIKVKLNRILKDEIPIGED
